Test results from patent publication US11708423B2, “Chimeric engulfment receptor molecules and methods of use” (CERO THERAPEUTICS, INC., priority 2017, dated 2023).

B1: CER21: Tim4 binding and transmembrane domains, TLR8 signaling domain; SEQ ID NO:88 (protein)
chain: MSKGLLLLWLVTELWWLYLTPAASEDTIIGFLGQPVTLPCHYLSWSQSRNSMCWGKGSCPNSKCNAELLRTDGTRIISRKSTKYTLLGKVQFGEVSLTISNTNRGDSGVYCCRIEVPGWFNDVKKNVRLELRRATTTKKPTTTTRPTTTPYVTTTTPELLPTTVMTTSVLPTTTPPQTLATTAFSTAVTTCPSTTPGSFSQETTKGSAFTTESETLPASNHSQRSMMTISTDIAVLRPTGSNPGILPSTSQLTTQKTTLTTSESLQKTTKSHQINSRQTILIIACCVGFVLMVLLFLAFLHHLFYWDVWFIYNVCLAKVKGYRSLSTSQTFYDAYISYDTKDASVTDWVINELRYHLEESRDKNVLLCLEERDWDPGLAIIDNLMQSINQSKKTVFVLTKKYAKSWNFKTAFYLALQRLMDENMDVIIFILLEPVLQHSQYLRLRQRICKSSILQWPDNPKAEGLFWQTLRNVVLTENDSRYNNMYVDSIKQY
modifications: CER21 chimeric engulfment receptor
B2: CER126: Tim4 binding and transmembrane domains, TLR2 primary and TRAF2 secondary signaling domains; SEQ ID NO:174 (protein)
chain: MSKGLLLLWLVTELWWLYLTPAASEDTIIGFLGQPVTLPCHYLSWSQSRNSMCWGKGSCPNSKCNAELLRTDGTRIISRKSTKYTLLGKVQFGEVSLTISNTNRGDSGVYCCRIEVPGWFNDVKKNVRLELRRATTTKKPTTTTRPTTTPYVTTTTPELLPTTVMTTSVLPTTTPPQTLATTAFSTAVTTCPSTTPGSFSQETTKGSAFTTESETLPASNHSQRSMMTISTDIAVLRPTGSNPGILPSTSQLTTQKTTLTTSESLQKTTKSHQINSRQTILIIACCVGFVLMVLLFLAFLHRFHGLWYMKMMWAWLQAKRKPRKAPSRNICYDAFVSYSERDAYWVENLMVQELENFNPPFKLCLHKRDFIPGKWIIDNIIDSIEKSHKTVFVLSENFVKSEWCKYELDFSHFRLFDENNDAAILILLEPIEKKAIPQRFCKLRKIMNTKTYLEWPMDEAQREGFWVNLRAAIKSMAAASVTPPGSLELLQPGFSKTLLGTKLEAKYLCSACRNVLRRPFQAQCGHRYCSFCLASILSSGPQNCAACVHEGIYEEGISILESSSAFPDNAARREVESLPAVCPSDGCTWKGTLKEYESCHEGRCPLMLTECPACKGLVRLGEKERHLEHECPERSLSCRHCRAPCCGADVKAHHEVCPKFPLTCDGCGKKKIPREKFQDHVKTCGKCRVPCRFHAIGCLETVEGEKQQEHEVQWLREHLAMLLSSVLEAKPLLGDQSHAGSELLQRCESLEKKTATFENIVCVLNREVERVAMTAEAC
modifications: CER126 protein
B3: CER104: Tim4 binding and transmembrane domains, TLR8 primary and DAP12 secondary signaling domains; SEQ ID NO:133 (protein)
chain: MSKGLLLLWLVTELWWLYLTPAASEDTIIGFLGQPVTLPCHYLSWSQSRNSMCWGKGSCPNSKCNAELLRTDGTRIISRKSTKYTLLGKVQFGEVSLTISNTNRGDSGVYCCRIEVPGWFNDVKKNVRLELRRATTTKKPTTTTRPTTTPYVTTTTPELLPTTVMTTSVLPTTTPPQTLATTAFSTAVTTCPSTTPGSFSQETTKGSAFTTESETLPASNHSQRSMMTISTDIAVLRPTGSNPGILPSTSQLTTQKTTLTTSESLQKTTKSHQINSRQTILIIACCVGFVLMVLLFLAFLHHLFYWDVWFIYNVCLAKVKGYRSLSTSQTFYDAYISYDTKDASVTDWVINELRYHLEESRDKNVLLCLEERDWDPGLAIIDNLMQSINQSKKTVFVLTKKYAKSWNFKTAFYLALQRLMDENMDVIIFILLEPVLQHSQYLRLRQRICKSSILQWPDNPKAEGLFWQTLRNVVLTENDSRYNNMYVDSIKQYYFLGRLVPRGRGAAEAATRKQRITETESPYQELQGQRSDVYSDLNTQRPYYK
modifications: CER104 protein
B4: CER122: Tim4 binding and transmembrane domains, TLR2 primary and DAP12 secondary signaling domains; SEQ ID NO:149 (protein)
chain: MSKGLLLLWLVTELWWLYLTPAASEDTIIGFLGQPVTLPCHYLSWSQSRNSMCWGKGSCPNSKCNAELLRTDGTRIISRKSTKYTLLGKVQFGEVSLTISNTNRGDSGVYCCRIEVPGWFNDVKKNVRLELRRATTTKKPTTTTRPTTTPYVTTTTPELLPTTVMTTSVLPTTTPPQTLATTAFSTAVTTCPSTTPGSFSQETTKGSAFTTESETLPASNHSQRSMMTISTDIAVLRPTGSNPGILPSTSQLTTQKTTLTTSESLQKTTKSHQINSRQTILIIACCVGFVLMVLLFLAFLHRFHGLWYMKMMWAWLQAKRKPRKAPSRNICYDAFVSYSERDAYWVENLMVQELENFNPPFKLCLHKRDFIPGKWIIDNIIDSIEKSHKTVFVLSENFVKSEWCKYELDFSHFRLFDENNDAAILILLEPIEKKAIPQRFCKLRKIMNTKTYLEWPMDEAQREGFWVNLRAAIKSYFLGRLVPRGRGAAEAATRKQRITETESPYQELQGQRSDVYSDLNTQRPYYK
modifications: CER122 protein

Columns and labels:
Assay type in all cases: cell-based
[1] = test system: H1975 lung adenocarcinoma cells; assay: LDH assay, H1975 cells, 48 hours co-culture with 1 μM Osimeritinib; details: E:T 1:1, 48 hours, CD4+ T cells
From the text: CER30 comprises a Tim4 binding domain, Tim4 transmembrane domain, and an engulfment signaling domain comprising a primary engulfment signaling domain comprising a TRAF2 signaling domain. CER30 has a polypeptide sequence as set forth in SEQ ID NO:96. CER110 has a polypeptide sequence of SEQ ID NO:125 and comprises a Tim4 binding domain, Tim4 transmembrane domain, and an engulfment signaling domain comprising a primary engulfment signaling domain comprising a TRAF6 signaling domain and a secondary engulfment signaling domain comprising a DAP12 signaling domain. CER112 has a polypeptide sequence of SEQ ID NO:128 and comprises a Tim4 binding domain, Tim4 transmembrane domain, and an engulfment signaling domain comprising a primary engulfment signaling domain comprising a TRAF6 signaling domain and a secondary engulfment signaling domain comprising a NFAM1 signaling domain. CER127 has a polypeptide sequence of SEQ ID NO:175 and comprises a Tim4 binding domain, Tim4 transmembrane domain, and an engulfment signaling domain comprising a primary engulfment signaling domain comprising a TRAF2 signaling domain and a secondary engulfment signaling domain comprising a TLR2 signaling domain. H1975 cells are more resistant to EGFR inhibitors, so Osimeritinib was used at slightly higher concentration. H1975 lung adenocarcinoma cells harboring an EGFR mutation were co-cultured with CER-expressing or mock-transduced (vector only) CD4+ T cells with 1 μM of Osimeritinib. After 48 hours of co-culture at a 1:1 effector:target cell ratio, T cells were washed away, and the number of viable H1975 cells was quantified using a calorimetric LDH assay (FIG. 57). Cell viability experiments were performed in triplicate and presented as % of control.

[2] = test system: HCC159 lung adenocarcinoma cells; assay: LDH-based cytotoxicity, HCC159 cells; details: Osimeritinib 0, 1, 5 nM; E:T 2:1 or 5:1; 18 hours
Protocol: HCC159 lung adenocarcinoma cells were co-cultured with CER123- or CER126-expressing CD4+ T cells with increasing concentrations of Osimeritnib (0, 1 nM, 5 nM). After 18 hours of co-culture, bulk supernatants were evaluated using a LDH-based cytotoxicity assay. T cells assays were performed using purified, EGFR^+ (transduction marker), CER modified T cells 7 days after activation using CD3 & CD28 microbeads at effector:target cell ratios of 2:1 or 5:1. Control “Mock” T cells were transduced with vector alone. […] Bulk supernatants were also analyzed after 18 hours of co-culture for Interferon Gamma (IFNγ) secretion (FIG. 50). Control “Mock” T cells were transduced with vector alone.

[3] = test system: ALK+A549 cells; assay: Phagocytosis of ALK inhibitor treated A549 ALK+ cells by CER T cells (fluorescent microscopy); details: for phagocytosis of A549 cells: CD4 T cells
From the text: An ELM4-ALK translocation was introduced into A549 cells. […] CD4 T cells are modified to express CER104 or CER117 and labeled with CELLTRACE Violet. CER117 has a polypeptide sequence set forth in SEQ ID NO:144 and comprises a Tim4 binding domain, a Tim4 transmembrane domain, and an engulfment signaling domain comprising a primary engulfment signaling domain comprising a TLR8 signaling domain and a secondary engulfment signaling domain comprising a TRAF6 signaling domain. The ALK+A549 cells were then co-cultured with CER104- or CER117-expressing CD4+ T cells or Mock-transduced (vector only) T cells for 12 hours and images were obtained by fluorescent microscopy at 40× magnification (FIGS. 62A-E). White arrows indicate exemplary phagocytic events (pH rodo red cell targets within CELLTRACE Violet labeled CD4+ T cells).
CER123- and CER126-transduced CD4+ and CD8+ T cells were labeled with CELLTRACE Violet and co-cultured with the A549 ALK-positive cells. Co-cultured cells were imaged by fluorescent microscopy at 63× magnification after 12 hours (FIGS. 63A-F). White arrows indicate exemplary phagocytic events (pHrodo red targets within CELLTRACE Violet-labeled CD4 T cells).
Phagocytosis of Alectinib-treated ALK+A549 cells by CER-expressing T cells was also quantified. […] Bar graph in FIG. 64A represents quantification of percentage phagocytosis calculated as ((number of phagocytic target events)/(total number of effector cells))*100. Events were calculated from fluorescent 3×3 stitched images at 40×resolution after 12 hours of co-culture. Bar graph in FIG. 64B represents quantification of adjusted phagocytic index calculated as (median area ratio of target events in effector cells*phagocytosis). Events calculated from fluorescent 3×3 stitched images at 40×resolution after 12 hours of co-culture.
CER21−, CER27−, CER30−, CER108−, CER110−, CER112−, CER120−, CER123−, CER124−, CER126−, CER127−, or CER104-transduced CD4+ T cells were co-cultured with Alectinib-treated A549 cells at a 1:1 ratio for 12 hours. Phagocytic events were calculated from 3×3 stitched fluorescent microscopy images at 40X resolution. […] Images were obtained after 12 hours of co-culture. Yellow triangles indicate exemplary phagocytic events (pHrodo red targets within CELLTRACE violet labeled CD4+ T cells).
A time course study of phagocytic uptake of tumor cells by CER-transduced T cells was performed. CD4+ T cells were transduced with a lentiviral vector comprising CER122 nucleic acid. Mock-transduced (vector only) CD4+ T cells were used as control. CER122-transduced T cells were labeled with CELLTRACE violet and co-cultured with pHrodo red labeled A549 ALK+ lung adenocarcinoma cells. Fluorescent microscopy images were obtained at 4, 8, and 16 hours co-culture (FIG. 72C), and % phagocytosis (FIG. 72A) and phagocytic index (FIG. 72B) were calculated.

Molecule	killing of H1975 cells (LDH) [1]	cell killing of HCC159 cells (LDH) [2]	phagocytic elimination of ALK+A549 cells ([3]; 2.5 μM Alectinib, 12 hours)	phagocytosis of A549 cells ([3]; 1 μM Alectinib, 12 hours)	phagocytosis of A549 cells ([3]; 1 μM Crizotinib, 12 hours)	phagocytic uptake of A549 ALK+ cells, time course ([3]; CD4+ T cells, 4, 8, and 16 hours co-culture)
B1	synergistic killing of H1975 lung adenocarcinoma cells upon EGFR inhibition					
B2	synergistic killing of H1975 lung adenocarcinoma cells upon EGFR inhibition	inducible cell killing responses	phagocytic elimination of ALK+A549 cells			
B3	synergistic killing of H1975 lung adenocarcinoma cells upon EGFR inhibition			phagocytosed A549 cells	phagocytosed A549 cells	
B4	synergistic killing of H1975 lung adenocarcinoma cells upon EGFR inhibition					phagocytic events by CER122-transduced T cells
